Substitutions are numbered along the chain they refer to. Values belong to the binder of their own block, whether it stands above or below them. Where no end group is shown, it is not given here.
Columns and labels:
Conditions in all cases: both partners purified
[1] = target: T1, MRG15 MRG domain, amino acids 155-323 (UniProt Q9UBU8-2 155-323); test: pull-down; His-tagged PALB2 peptide (0.1 mg/mL) bound to Ni-NTA beads, MRG15 155-323 (0.1 mg/mL) added for 30 min; Buffer B (25 mM HEPES pH 7.5, 10% glycerol, 2 mM CHAPS, 300 mM NaCl), washes with 20 mM imidazole, elution with 250 mM imidazole, SDS-PAGE
T1 construct: MRG15 (Morf-related gene on chromosome 15), MRG domain, amino acids 155-323; Cloned into the pET28b+-based pSMT3 vector; also called MRG15^155-323; MRG15 fragment; source: E. coli BL21*, purified (Ni-NTA, SUMO tag cleaved with Ulp1, second Ni-NTA flowthrough); not shown: 6xHis, N-terminal, cleaved; SUMO, N-terminal, cleaved
T1 sequence (Q9UBU8 194-362): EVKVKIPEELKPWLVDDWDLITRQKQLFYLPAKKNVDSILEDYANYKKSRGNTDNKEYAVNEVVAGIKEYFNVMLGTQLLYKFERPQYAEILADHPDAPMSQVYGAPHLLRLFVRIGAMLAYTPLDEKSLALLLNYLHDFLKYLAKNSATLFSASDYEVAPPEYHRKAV

[2] = target: T1, MRG15 MRG domain, amino acids 155-323; test: fluorescence polarisation; fluorescence anisotropy competition; mutant PALB2 597-630 peptides serially diluted from 10 uM to 0.6 nM against a preformed complex of MRG15 and FAM-PALB2; 25 mM HEPES pH 8.0, 1 mM TCEP, 10% DMSO, 200 mM NaCl; room temperature
[3] = target: T1, MRG15 MRG domain, amino acids 155-323; test: fluorescence polarisation; fluorescence anisotropy; MRG15 fragment serially diluted from 10 uM to 0.6 nM against 10 nM FAM-PALB2 597-630; 25 mM HEPES pH 8.0, 1 mM TCEP, 10% DMSO, 200 mM NaCl; four-parameter logistic fit, EC50 taken as Kd

B2: PALB2^597-630 peptide Pro615Ser (peptide, UniProt Q86YC2 597-630, looked up)
peptide: MLSLKQLLSFLSITDFQLSDEDFGPLKLEKVKSC
notes: also called Pro615 to serine; source: synthetic peptide, bought: Genscript Biotech
- fold reduction in binding affinity against the wild-type peptide [2]: 5 fold

B4: PALB2^597-630 peptide Asp616His (peptide, UniProt Q86YC2 597-630, looked up)
peptide: B2 peptide with S19P, D20H
notes: also called Asp616 with histidine; source: synthetic peptide, bought: Genscript Biotech
- fold reduction in binding affinity against the wild-type peptide [2]: 2 fold

The next lines start with the values.

- binding result [1]: binds
B1: 6xHis-PALB2^597-630 (peptide, UniProt Q86YC2 597-630, looked up)
chain: B2 peptide with S19P
notes: Cloned into pMCSG7; also called His-tagged PALB2 peptide; source: E. coli BL21*, purified (Ni-NTA from 8 M urea, washed down to 1 M urea); not shown: 6xHis, N-terminal, kept

- Kd [3]: 23.4 ± 5 nM
B3: fluorescein-labeled PALB2^597-630 peptide (peptide, UniProt Q86YC2 597-630, looked up)
peptide: B2 peptide with S19P
modifications: also: fluorescein (FAM) label, position not given here
notes: also called FAM-PALB2; source: synthetic peptide, bought: Genscript Biotech

- binding result [2]: binds
B5: PALB2^597-630 peptide Pro621Thr (peptide, UniProt Q86YC2 597-630, looked up)
peptide: B2 peptide with S19P, P25T
notes: also called Pro621 by threonine; source: synthetic peptide, bought: Genscript Biotech
